Data published in patent publication US20220267443A1 (AGENUS, published 2022).

T1: recombinant human CTLA-4-Fc (R&D Systems, #7268-CT) (human, UniProt P16410 36-161)
T1 construct: Bought protein; also called rhCTLA-4-Fc; CTLA-4 antigen; not shown: Fc part of the bought fusion protein
T1 sequence: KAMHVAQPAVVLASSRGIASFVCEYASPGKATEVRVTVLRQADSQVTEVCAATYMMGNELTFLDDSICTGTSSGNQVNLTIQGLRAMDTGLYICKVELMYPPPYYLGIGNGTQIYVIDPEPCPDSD

B1: AGEN1896 (antibody, V domains shown)
VH: EVQLLESGGGLVKPGGSLRLSCAASGFTFSSYSMNWVRQAPGKGLEWVSSISSSSSYIYYADSVKGRFTISRDNAKNSLYLQMNSLRAEDTAVYYCARVGLMGPFDIWGQGTMVTVSS
VL: EIVLTQSPATLSFSPGERATLSCRASQSVSSYLAWYQQKPGQAPRLLIYGASSRATGIPDRFSGSGSGTDFTFTISRLEPEDFAVYYCQQYGSSPFTFGPGTKVDIK
B2: AGEN1887 (antibody, V domains shown)
VH: EVQLLESGGGLVQPGGSLRLSCAASGFTFSSYAMSWVRQAPGKGLVWVSSISSSSSYIYYADSVKGRFTISRDNAKNSLYLQMNSLRAEDTAVYYCARVGLMGPFDIWGQGTMVTVSS
VL: EIVLTQSPGTLSLSPGERATLSCRASQSVSRYLGWYQQKPGQAPRLLIYGASTRATGIPDRFSGSGSGTDFTLTITRLEPEDFAVYYCQQYGSSPWTFGQGTKVEIK
B3: AGEN1897 (antibody, V domains shown)
VH: EVQLLESGGGLVQPGGSLRLSCAASGFTFSSYAMSWVRQAPGKGLVWVSSISSSSSYIYYADSVKGRFTISRDNAKNSLYLQMNSLRAEDTAVYYCARVGLMGPFNIWGQGTMVTVSS
VL: EIVLTQSPGTLSLSPGERATLSCRASQSVSRYLGWYQQKPGQAPRLLIYGASTRATGIPDRFSGSGSGTDFTLTITRLEPEDFAVYYCQQYGSSPWTFGQGTKVEIK
B4: AGEN1898 (antibody, V domains shown)
VH: EVQLLESGGGLVQPGGSLRLSCAASGFTFSSYAMSWVRQAPGKGLVWVSSISSSSSYIYYADSVKGRFTISRDNAKNSLYLQMNSLRAEDTAVYYCARVGLMGPFNIWGQGTMVTVSS
VL: EIVLTQSPATLSLSPGERATLSCRASQSVSSYLAWYQQKPGQAPSLLIYATSSRATGIPDRFSGSVSGTDFTLTISRLEPEDFAVYYCQQYGTSPWTFGQGTKVEIK
B5: AGEN1901 (antibody, V domains shown)
VH: EVQLVESGGGLVQPGGSLTLSCAASGFTFSSYSMNWVRQAPGKGLEWVSSISSSSSYIYYADSVKGRFTISRDNAKNSLYLQMNSLRAEDTAVYYCARVGLMGPFDIWGQGTMVTVSS
VL: EIVLTQSPATLSLSPGERATLSCRASQSVGTYLAWYQHKVGQAPRLLIYGASRRATGIPDRFSGSGSGTDFTLTISRLEPEDFAVYYCQQYGSSPWTFGQGTKVEIK
B6: AGEN1902 (antibody, V domains shown)
VH: EVQLVESGGGLVQPGGSLTLSCAASGFTFSSYSMNWVRQAPGKGLEWVSSISSSSSYIYYADSVKGRFTISRDNAKNSLYLQMNSLRAEDTAVYYCARVGLMGPFDIWGQGTMVTVSS
VL: EIVLTQSPATLSFSPGERATLSCRASQSVSSYLAWYQQKPGQAPRLLIYGASSRATGIPDRFSGSGSGTDFTFTISRLEPEDFAVYYCQQYGSSPFTFGPGTKVDIK
B7: AGEN1899 (antibody, V domains shown)
VH: EVQLLESGGGLVQPGGSLRLSCAASGFTFSSYAMSWVRQAPGKGLVWVSSISSSSSYIYYADSVKGRFTISRDNAKNSLYLQMNSLRAEDTAVYYCARVGLMGPFNIWGQGTMVTVSS
VL: EIVLTQSPATLSFSPGERATLSCRASQSVSSYLAWYQQKPGQAPRLLIYGASSRATGIPDRFSGSGSGTDFTFTISRLEPEDFAVYYCQQYGSSPFTFGPGTKVDIK
B8: AGEN1890 (antibody, V domains shown)
VH: EVQLVESGGGLVKPGGSLRLSCAASGFTFSSYSMNWVRQAPGKGLEWVSSISSSSSYIYYADSVKGRFTISRDNAKNTLYLQMNSLRAEDTAVYYCARVGLMGPFDIWGQGTMVTVSS
VL: EIVLTQSPATLSFSPGERATLSCRASQSVSSYLAWYQQKPGQAPRLLIYGASSRATGIPDRFSGSGSGTDFTFTISRLEPEDFAVYYCQQYGSSPFTFGPGTKVDIK
B9: AGEN1893 (antibody, V domains shown)
VH: EVQLLESGGGLVKPGGSLRLSCAASGFTFSSYSMNWVRQAPGKGLEWVSSISSSSSYIYYADSVKGRFTISRDNAKNSLYLQMNSLRAEDTAVYYCARVGLMGPFDIWGQGTMVTVSS
VL: EIVLTQSPATLSLSPGERATLSCRASQSVGTYLAWYQHKVGQAPRLLIYGASRRATGIPDRFSGSGSGTDFTLTISRLEPEDFAVYYCQQYGSSPWTFGQGTKVEIK
B10: AGEN1889 (antibody, V domains shown)
VH: EVQLVESGGGLVKPGGSLRLSCAASGFTFSSYSMNWVRQAPGKGLEWVSSISSSSSYIYYADSVKGRFTISRDNAKNTLYLQMNSLRAEDTAVYYCARVGLMGPFDIWGQGTMVTVSS
VL: EIVLTQSPATLSLSPGERATLSCRASQSVGTYLAWYQHKVGQAPRLLIYGASRRATGIPDRFSGSGSGTDFTLTISRLEPEDFAVYYCQQYGSSPWTFGQGTKVEIK
B11: AGEN1892 (antibody, V domains shown)
VH: EVQLVESGGGLVKPGGSLRLSCAASGFTFSSYSMNWVRQAPGKGLEWVSSISSSSSYIYYADSVKGRFTISRDNAKNTLYLQMNSLRAEDTAVYYCARVGLMGPFDIWGQGTMVTVSS
VL: EIVLTQSPATLSLSPGERATLSCRASQSVSSYLAWYQQKPGQAPRLLIYGASNRATGIPARFSGSGSGTDFTLTISSLEPEDFAVYYCQQYGSSPFTFGPGTKVDIK
B12: AGEN1885 (antibody, V domains shown)
VH: EVQLVESGGGLVKPGGSLRLSCAASGFTFSSYSMNWVRQAPGKGLEWVSSISSSSSYIYYADSVKGRFTISRDNAKNSLYLQMNSLRAEDTAVYYCARVGLMGPFDIWGQGTMVTVSS
VL: EIVLTQSPATLSLSPGERATLSCRASQSVSSYLAWYQQKPGQAPSLLIYATSSRATGIPDRFSGSVSGTDFTLTISRLEPEDFAVYYCQQYGTSPWTFGQGTKVEIK
B13: AGEN1886 (antibody, V domains shown)
VH: EVQLVESGGGLVKPGGSLRLSCAASGFTFSSYSMNWVRQAPGKGLEWVSSISSSSSYIYYADSVKGRFTISRDNAKNSLYLQMNSLRAEDTAVYYCARVGLMGPFDIWGQGTMVTVSS
VL: EIVLTQSPATLSFSPGERATLSCRASQSVSSYLAWYQQKPGQAPRLLIYGASSRATGIPDRFSGSGSGTDFTFTISRLEPEDFAVYYCQQYGSSPFTFGPGTKVDIK
B14: AGEN1891 (antibody, V domains shown)
VH: EVQLVESGGGLVKPGGSLRLSCAASGFTFSSYSMNWVRQAPGKGLEWVSSISSSSSYIYYADSVKGRFTISRDNAKNTLYLQMNSLRAEDTAVYYCARVGLMGPFDIWGQGTMVTVSS
VL: EIVLTQSPATLSVSPGERATLSCRASQSVSSYLAWYQQKPGQAPRLLIYAASTRATGIPDRFSGSASGTDFTLTISRLEPEDFAVYYCQQYGSSPWTFGQGTKVEIK
B15: AGEN1888 (antibody, V domains shown)
VH: EVQLLESGGGLVQPGGSLRLSCAASGFTFSSYAMSWVRQAPGKGLVWVSSISSSSSYIYYADSVKGRFTISRDNAKNSLYLQMNSLRAEDTAVYYCARVGLMGPFDIWGQGTMVTVSS
VL: EIVLTQSPATLSFSPGERATLSCRASQSVSSYLAWYQQKPGQAPRLLIYGASSRATGIPDRFSGSGSGTDFTFTISRLEPEDFAVYYCQQYGSSPFTFGPGTKVDIK
B16: AGEN1900 (antibody, V domains shown)
VH: EVQLLESGGGLVQPGGSLRLSCAASGFTFSSYAMSWVRQAPGKGLVWVSSISSSSSYIYYADSVKGRFTISRDNAKNSLYLQMNSLRAEDTAVYYCARVGLMGPFNIWGQGTMVTVSS
VL: EIVLTQSPATLSLSPGERATLSCRASQSVSSYLAWYQQKPGQAPRLLIYGASNRATGIPARFSGSGSGTDFTLTISSLEPEDFAVYYCQQYGSSPFTFGPGTKVDIK
B17: AGEN1895 (antibody, V domains shown)
VH: EVQLLESGGGLVKPGGSLRLSCAASGFTFSSYSMNWVRQAPGKGLEWVSSISSSSSYIYYADSVKGRFTISRDNAKNSLYLQMNSLRAEDTAVYYCARVGLMGPFDIWGQGTMVTVSS
VL: EIVLTQSPATLSLSPGERATLSCRASQSVSSYLAWYQQKPGQAPSLLIYATSSRATGIPDRFSGSVSGTDFTLTISRLEPEDFAVYYCQQYGTSPWTFGQGTKVEIK

These binders were tested against T1, recombinant human CTLA-4-Fc (R&D …) (assay: surface plasmon resonance, antibody captured on CM5 chip, rhCTLA-4-Fc in solution).
Description: To detect nonspecific interactions of the CTLA-4 antigen, antibody capture was only performed in flow cell 2, whereas in flow cell 1 only the capturing antibody was immobilized. After capture of the anti-CTLA-4 antibodies, the CTLA-4 antigens were run through both flow cells in different amounts. Specifically, recombinant human CTLA-4-Fc (R&D Systems, #7268-CT), recombinant human CTLA-4 (Sino Biological, #11159-H08H), recombinant cynomolgus CTLA-4-Fc (Sino Biological, #90213-C02H), and recombinant cynomolgus CTLA-4 (Sino Biological, #90213-C08H) were run at 100 nM, 25 nM, and 6.25 nM; and recombinant mouse CTLA-4-Fc (R&D, # 434-CT), recombinant rat CTLA-4-Fc (Sino Biological, #81069-RO2H), and recombinant rat CTLA-4 (Sino Biological, #81069-R08H) were run at 400 nM, 100 nM, and 25 nM. A blank curve (running buffer only) was also included in each run. Association was run for 90 seconds and dissociation for 600 seconds with a flow rate of 10 μl/min. After each run a regeneration step was performed with 10 mM Glycine pH 2.0 (GE Healthcare, BR-1003-55) for 60 seconds with 30 μl/min. Binding curves were evaluated using BIAcore® T200 evaluation software version 2.0.1 applying a Langmuir 1:1 model with global fit of Rmax. From these values the affinities (KD) of AGEN1884 and the reference anti-CTLA-4 antibody for various antigens were calculated and shown in FIG. 1A. The recombinant monomeric cynomolgus CTLA-4, mouse CTLA-4-Fc, and monomeric rat CTLA-4 used in this study failed quality control assessment. […] The surface plasmon resonance analysis was later repeated twice using recombinant mouse CTLA-4-Fc (Sino Biological, #81069-R02H) that passed a quality control assessment at 360 nM, 120 nM, 40 nM, and 13.3 nM for AGEN1884w.
The affinity of the 19 anti-CTLA-4 antibodies described above was analyzed by surface plasmon resonance in an assay similar to the one described in Section 6.1.1. The CTLA-4 antigen tested was recombinant human CTLA-4-Fc (R&D Systems, #7268-CT). The anti-CTLA-4 antibodies (6 μg/ml in running buffer) were captured to the chip surface of a CMS sensor chip.

Binder | binding result
B1 | binds
B2 | binds
B3 | binds
B4 | binds
B5 | binds
B6 | binds
B7 | binds
B8 | binds
B9 | binds
B10 | binds
B11 | binds
B12 | binds
B13 | binds
B14 | binds
B15 | binds
B16 | binds
B17 | binds
